{"source": "the nanobody polyreactivity screen of Harvey et al. (2022)", "data": [{"assay": "yeast display, Sf9 membrane polyspecificity reagent, FACS + sequencing; frameworks hold sequencing errors", "summary_of_the_method": "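Nanobodies came from a synthetic yeast display library in Saccharomyces cerevisiae BJ5465, induced with galactose for 36–48 hours and stained for 1 hour at 4 °C with 10% biotinylated, detergent-solubilized Sf9 membrane reagent. Cells were enriched on streptavidin microbeads and then FACS-sorted, with low and high (top ~1%) gates set on anti-HA fluorescence for expression and streptavidin fluorescence for reagent binding. Each polyreactivity label reflects the gate a clone came from. Genes were amplified by colony PCR, sequenced by MiSeq 2 × 250 and filtered by CDR length.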", "values": [{"sequence": "QVQLVESGGGLVQAGGSLRLSCAASGGIFSYYAMGWYIQAPGKERELVAAISGSGGRTYYADSVKGRFTLSRDNAKNTVYLQMNSLKPEDTAVYYCAAYPVNRVDYRYDYWGQGTQVTVSS", "polyreactivity (PSR sort gate)": "high polyreactivity"}, {"sequence": "QVQLVESGGGLVQAGGSLRLSCAASGGIFTAYPMGWSRQAPGKERELVATITRGGSTNYADSVKGRFTISRDNAKNTVYLQMNSLKPEDTAVYYCNARYSWRSKWWTEDDYWGQGTQVTVSS", "polyreactivity (PSR sort gate)": "high polyreactivity"}, {"sequence": "QVQLVESGGGLVQAGGSLRLSCAASGGIFTAYTIGWYRQAPGKERELVATITRGGSTNYADSVKGRFTISRDNAMNTVYLQMNSLKPEDTAVYYCNARVQRRGVQYYYWGHGTQVTVSS", "polyreactivity (PSR sort gate)": "high polyreactivity"}, {"sequence": "QVQLVESGGGLVQAGGSLRLSCAASGGIFTGYAMGRYRQAPGKERELVAAISSGGTTYYADSVKGRFTISRDNAKNTVDLQMNSLKPEDTAVYYCAAGFYLRAVWMDYWGQGSQVTVSS", "polyreactivity (PSR sort gate)": "high polyreactivity"}, {"sequence": "QVQLVESGGGLVQAGGSLRLSCAASGGIFTLYVRGWYRQAPGKERELVAAISRTGGSTYYADSVKGRFTISRDNAKNTVYLQMNSLKPEDTAVYFCAALYRGGTRYGGYDYWGQGTQVTVSS", "polyreactivity (PSR sort gate)": "low polyreactivity"}, {"sequence": "QVQLVESGGGLVQAGGSLRLSCAASGGIFTSYDMGWYRQAPAKEREFVAGISDSGGSTYYADSVKGRFTISRDNAKNTVYLQMNSLKPEDTAVYYFAADAWYVWEYWWQTEDDYWGQGTEVTVSS", "polyreactivity (PSR sort gate)": "high polyreactivity"}, {"sequence": "QVQLVESGGGLVQAGGSLRLSCAASGGIFTYYAMGGYRQAPGKERELVAAITWSGGSTYYADSVKGRFTISRDNAKNTVYLQMNSLKPEETAVYYCNAVVLHVTTDNSTFTTDDYWGHGTQVTVSS", "polyreactivity (PSR sort gate)": "low polyreactivity"}, {"sequence": "QVQLVESGGGLVQAGGSLRLSCAASGGIFVPYAMGWYRQAPGKERELVAGITSGGSTNYADSVKGRFTISRDNAKNTVYLQMNSLKPVDTAVYYCAARRRPGGRYKSRVWYDYWGQGTQVTVSS", "polyreactivity (PSR sort gate)": "high polyreactivity"}, {"sequence": "QVQLVESGGGLVQAGGSLRLSCAASGGIFVRNAMLWYRQAPGKERELVAAISDTGGSTYYADSVKGRFTISRDNAKNTVYLQMNSLKPEDTAVYYCAADLSPEADDYDVGGWRFRYDYWGQGTQVTVSS", "polyreactivity (PSR sort gate)": "low polyreactivity"}, {"sequence": "QVQLVESGGGLVQAGGSLRLSCAASGGIFVSYAMGWYRQAPGNERELVAAITSGGGTSYADSVKGRFTISRDNAKNTVYLQMNSLKPEDTAVYYCNADGYLAERFVIRLDEYRDYDYWGQGTQVTVSS", "polyreactivity (PSR sort gate)": "low polyreactivity"}, {"sequence": "QVQLVESGGGLVQAGGSLRLSCAASGGIFVTYAMGWCRQAPGKERELVAAITSGDSTYYADSVKGRFTISRDNAKNPVYLQMNSLKPEDTAVYYCAVGSTDRVSAQGSYFTYDYWGQGTQVTVSS", "polyreactivity (PSR sort gate)": "low polyreactivity"}, {"sequence": "QVQLVESGGGLVQAGGSLRLSCAASGGIFWFNAMGRYRQAPGKEREFVAAITWRGGSTYYADSVKGRFTISRDNAKNTVYLQMHSLKPEDTAVYYCAATYWWHRSSGWDRVEYWGQGTQVNVSS", "polyreactivity (PSR sort gate)": "high polyreactivity"}, {"sequence": "QVQLVESGGGLVQAGGSLRLSCAASGGIFWTYAMGWYRQAPWKERELVATITSGGSTNYADSVKGRFTISRDNAKNTVYLQMNSLKPEDTAVYYCNADWWWGYGYWGQGTQVTVSS", "polyreactivity (PSR sort gate)": "low polyreactivity"}, {"sequence": "QVQLVESGGGLVQAGGSLRLSCAASGGIFYDYAMGWYRQAPGKERELVAAISQSGGSTYYADSVKGRFTISRDNAKNTVYLQMNSLKPEDTAVYYCAADYLDSTYGYVYGWDDSWGQGTQVTVSS", "polyreactivity (PSR sort gate)": "low polyreactivity"}, {"sequence": "QVQLVESGGGLVQAGGSLRLSCAASGGIFYGNVMGWYRHAPGKERELVADITSVGSTYYADSVKGRFTISRDNAKNTVYLQMNSLKPEDTAVYYCAAETYLVFSTWYGYDYCGQGTQVTVSS", "polyreactivity (PSR sort gate)": "low polyreactivity"}, {"sequence": "QVQLVESGGGLVQAGGSLRLSCAASGGIFYGYALGWYRQAPGKERELVASITSDGSTYADSVKGRFTISRDNAKNTVYLQMNSLKPEDTAVYYCNKEILVIVTYDYWGQGTQVTVSS", "polyreactivity (PSR sort gate)": "low polyreactivity"}]}]}
